The target of this assay is human CD3ε expressed on Jurkat T cells (clone E6-1) as part of TCR-CD3 complexes (human) (UniProt P07766). Description: cell-based or functional assay.
Chain of human CD3ε expressed on Jurkat T cells (clone E6-1) as part of TCR-CD3 complexes (human) (P07766 23-207, one chain of several): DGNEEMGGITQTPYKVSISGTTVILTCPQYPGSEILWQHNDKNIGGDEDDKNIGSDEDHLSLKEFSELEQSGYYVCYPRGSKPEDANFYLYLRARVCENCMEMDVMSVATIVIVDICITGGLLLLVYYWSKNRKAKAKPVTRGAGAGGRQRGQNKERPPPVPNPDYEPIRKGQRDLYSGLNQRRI

As for “biotin anti-human CD3ε (OKT3) antibody coated on M280 streptavidin Dynabeads”, the expansion of Jurkat cells during 48 hours of culture (hemocytometer count) turned out to be 1.9 times.

These data come from patent publication US12006373.
